# Measurements reported in US8735085B2, “Method for diagnosing diseases using a protein or degradation product based on half-life” (Becton, Dickinson and Company, priority 2007, dated 2014).
# Like-named read-outs stand apart in the source and are kept apart here. No end group written: not given here.
# Key:
# [1] = Time-course stability of spiked isotope-labeled (AQUA) peptides in serum and plasma samples, MALDI-TOF MS, first-order fit; assay type: in vitro ADME, human; conditions: for T1/2 (h) Citrate / T1/2 (h) EDTA / T1/2 (h) Heparin: plasma
# Source text: Methods of determining the half-lives of parent peptides may be determined by a process, which includes by example first spiking the peptide into one or more collection vehicles such as blood collection tubes comprising samples of biological fluid. In some embodiments, the collection vehicle is a swab. As described in an example disclosed herein, commercially available blood collection tubes sampled for determining half-lives included P100, EDTA, citrate, or heparin blood collection containers. The peak intensities of the peptide in each sample are measured at various points in time. […] Accordingly, a line may be constructed for each sample. The slope of the line (−kobs), representing the kinetic rate of the first-order degradation, may be used to compute a half-life value. That is, a kinetic rate constant can be determined by fitting the data with: Ln(I)=−kobs t+C, where I is the peak intensity, or the peak area, t is the incubation time period in the study, C is a constant, and kobs is the observed (or apparent) rate constant. The half-life of the peptide is determined by t1/2=Ln(2)/kobs.
# A direct test for stability of a peptide biomarker in a collected blood sample was carried out by monitoring its change during a time-course incubation. It was discovered that the spiked peptides themselves are subject to preanalytical degradation, and thus the spiked peptides became our focus for studying the relative instability of peptides in various blood samples. The stability of AQUA FPA was tested by adding it into either a serum or plasma sample (either BD P100, EDTA, citrate, or heparin plasma) collected from a single venipuncture, or a pooled serum or plasma sample from three healthy individuals. After the spiked sample was incubated for specified periods of time, the peptides were measured by MALDI-TOF MS.
# Human blood from healthy individuals was directly drawn into evacuated tubes to obtain serum and plasma samples, as described previously (20). Briefly, serum tubes (BD product #366430) were placed at room temperature (r.t., approx. 24° C.) to clot for 60 min after the collection of the blood, and then centrifuged at 2,500×g for 15 min. at room temperature. Plasma tubes, including citrate tube (BD product #369714), heparin tube (BD product #367886), EDTA tube (BD product #367525), and BD P100 tube (BD product #366456), were spun immediately (within 10 min. after blood was drawn), for 15 min at 2,500×g, and at room temperature to minimize the handling condition and to prevent possible platelet activation. Both plasma and serum samples were pipetted out of the blood-collection tubes into Eppendorf tubes and were frozen within 15 minutes at −80° C. until use. With these optimized handling processes, full acquisition and processing time was minimized to approximately 30 minutes for plasma and 90 minutes for serum.
# Isotopically labeled peptides were purchased from Sigma-Genosys (The Woodlands, Tex.). All peptides were synthesized with one stable isotopic amino acid residue, either L-Arginine-13C6 15N4, or L-Phenylalanine-13C9 15N1, with mass of 10 higher than its natural counterpart. The quality of each peptide was verified by HPLC, MALDI-TOF MS (FIG. 6), and amino acid analysis by the vendor with purity higher than 98%. […] The peptides were diluted with relevant solvents to make stocks of 400 fmol/μL for spiking experiments.
# The frozen serum and plasma were thawed (once only) in a room temperature water bath for approximately 5 minutes, in order to minimize the dwell time by temperature exposure of the samples. Soluble AQUA peptide (50 μL in water) was spiked into a thawed serum or plasma sample (450 μL), resulting in a final concentration of 40 fmol/μL. The samples were incubated at room temperature. A 45-μL aliquot was withdrawn at each specified time, and quenched by adding 5 μL of 2% TFA solution. […]
# [2] = Sequential multi-step reaction (SMSR) kinetic modeling of FPA and its fragments in pooled heparin plasma; assay type: in vitro ADME, human; conditions: for apparent rate constants of the sequential reactions (k1-k5, truncation of the peptide) / half-lives: heparin plasma pooled from three healthy individuals; for apparent rate constants of the sequential reactions (k1-k5, truncation of the peptide): first-order SMSR simulation; for half-lives: four replicates, first-order SMSR; for T1/2 (h) in Heparin: SMSR model; for incubation time at which the truncated daughter peptide was detected: AQUA FPA spiked in heparinized plasma
# Description: Determining half-lives of the degradation products of the peptide, however, entails further modeling and calculations. For examples, sequential multi-step reaction (SMSR) model may be used. Particularly, the half-life of each daughter peptide (e.g., FPA-1, FPA-2, FPA-3, etc.) is determined using information related to one or more of its parent peptides as well as the measured behavior of the daughter peptides creation and further degradation. Accordingly, as represented below, the peptide FPA, referred to as “a” and having a kinetic rate constant k1, is used to determine the half-life of […], referred to as “b” and having a kinetic rate constant k2, which is used to determine the half-life of FPA-2, referred to as “c” and having a kinetic rate constant of k3, and so on.
# Accordingly, kj is the kinetic rate constant of step reaction j. Ii is the measured signal (i.e., the peak intensity in MALDI-TOF MS) of peptide i. For example, measured intensities of each of the degradation products of the peptide over a 4 hour time span may be seen in FIG. 3. The peak intensity of, for example, FPA-4, occurs at 2 hours, where is measures 1216.670 m/z. A0 is the initial peak intensity of the parent peptide at time 0. Since Ii=K′iCi+I0, and I0=0 after baseline subtraction, then Ii=K′iCi or Ci=KiIi (1), where
# Such calculations are performed for different points in time (i.e., different values of t), so as to plot the varying intensities of each degradation product against the reaction time, as shown in FIG. 4b. The rate constant of each step reaction, kj, can be computed by simulation of the equations (2b)-(6b). Then, the half-lives for each degradation product may be calculated by the equation t1/2=Ln(2)/kj.
# For determining kinetic rate constants in a complex sequential reaction observed in this study, analytical solutions were derived from, a first order sequential multi-step reaction (SMSR), as explained above in the discussion concerning equations (1)-(6), (2a)-(6a), and (2b)-(6b). MATLAB (Version 7.0, Mathworks) was employed to numerically simulate this model with the experimental data, and reaction rate constants were then determined in the sequential pattern following the chain reaction sequences. The modeling process was optimized to achieve a best fit to R^2 (goodness-of-fit) calculation.
# The observed decrease of the spiked AQUA FPA peptide is caused by the intrinsic amino-peptidase activity (9, 15, 20, 33) as its six fragments, sequentially truncated from the amino terminus, can be detected during the incubation (FIG. 3, FIG. 8). The process was easily observed in heparinized plasma, since the relative instability in this sample facilitated detection of the various truncated peptides within a reasonable experimental time frame (FIG. 3). […] During further incubation, smaller daughter peptides were detected: FPA-3 at 30 min, FPA-4 at one hour, and both FPA-5 and FPA-6 at two hours (FIG. 3, FIG. 8). None of these peptides was detected after eight-hour incubation.
# The measurement of the degradation products was sufficiently unambiguous as to allow definition of a kinetic model of the degradation process. To determine the rate constants of the sequential reaction, the fragments of FPA: FPA-1, FPA-2, FPA-3, FPA-4 (FIG. 3), were measured in heparin plasma pooled from three healthy individuals with four replicates, and the average of peak intensities were modeled according to a first-order SMSR (FIG. 4). Simulation of the peak intensities of time-course MS (FIG. 4B) gave apparent rate constants of the sequential reactions: k1=2.1, k2=0.29, k3=1.96, k4=1.6, and k5=0.04 h^−1 for the first five step truncations (FIG. 4A), with goodness-of-fit (R^2) of 0.84, 0.78, 0.77, 0.87, and 0.76, respectively. Accordingly, the half-lives of FPA, FPA-1, FPA-2, FPA-3, and FPA-4 are 0.29, 2.1, 0.31, 0.38, and 15.2 hours, respectively (FIG. 4A). […]
Substance,peptidase-induced degradation of isotopic labeled peptide [1],"apparent rate constants of the sequential reactions (k1-k5, truncation of the peptide) [2] [h⁻¹]",half-lives [2] [h],T1/2 (h) in Heparin ([2]; heparin plasma) [h],incubation time at which the truncated daughter peptide was detected [2],other results
BNP: brain natriuretic peptide,instability has been observed,,,,,
ADSGEGDFLAEGGGVR (listed as Homo sapiens) [FPA],,2.1,0.29,0.29,,"detectable up until a period of time after collection [1]: 12 to 48 h; detection of peak after incubation [1]: still easily detected at 48 hours; time until undetectable after collection [1]: undetectable in less than two hours; T1/2 (h) Citrate ([1]; human): <0.1 h; T1/2 (h) EDTA ([1]; human): 3.51 ± 0.05 h; T1/2 (h) Heparin ([1]; human): 0.55 ± 0.02 h; T1/2 (h) Serum ([1]; human, serum): 0.30 ± 0.01 h; half-life in serum (too short to be measured) ([1]; human, serum): less than 15 min."
GLP-1: glucagon-like peptide-1,instability has been observed,,,,,
DSGEGDFLAEGGGVR (listed as Homo sapiens) [FPA-1],,0.29,2.1,2.1,Time 0,enhanced half-life compared to the parental FPA ([2]; heparin plasma): 7 fold
"NGFKSHALQLNNRQIR-OH [C4, NGFKSHALQLNNRQIR]",instability has been observed,,,,,
GDFLAEGGGVR (listed as Homo sapiens) [FPA-5],,,,,at two hours,
RPPGFSPFR [bradykinin],,,,,,"peptidase-induced degradation of isotopic labeled peptide ([1]; blood samples, BNP, GLP-1, bradykinin data not shown): instability has been observed"
EGDFLAEGGGVR (listed as Homo sapiens) [FPA-4],,0.04,15.2,15.2,at one hour,"enhanced half-life compared to the parental FPA ([2]; heparin plasma): 52 fold; time at which the peak intensity occurs ([2]; heparin plasma, 4 hour time span, FIG. 3): 2 h"
SSKITHRIHWESASLLR (listed as Homo sapiens) [C3f],instability has been observed,,,,,"T1/2 (h) Citrate ([1]; human): 0.039 ± 0.01 h; T1/2 (h) EDTA ([1]; human): 0.082 ± 0.01 h; T1/2 (h) Heparin ([1]; human): 0.075 ± 0.01 h; T1/2 (h) Serum ([1]; human, serum): 0.079 ± 0.01 h"
GEGDFLAEGGGVR (listed as Homo sapiens) [FPA-3],,1.6,0.38,0.38,at 30 min,
SGEGDFLAEGGGVR (listed as Homo sapiens) [FPA-2],,1.96,0.31,0.31,Time 0,
DFLAEGGGVR (listed as Homo sapiens) [FPA-6],,,,,at two hours,
